The values below come from patent US20260275378A1 (4D MOLECULAR THERAPEUTICS, published 2026).

For this experiment, the target named is T1, complement C3b (UniProt P01024 23-667; P01024 749-1663).
T1 construct: purified C3b (Complement Technology Inc. cat #A114) in the cleavage assay; also called purified C3b; C3b fragment
In words: C3b binding ELISA, C3b-coated plate, HEK293T supernatant. As to the method: C3b binding ELISA. The C3b binding ELISA is an in-house ELISA adapted from Nichols et. al. ([…] The assay tests if CpG-free miniCFH retains direct C3b binding ability by utilizing monoclonal anti-CFH blocking antibodies to prevent miniCFH binding to a C3b coated plate. The assay was carried out with both full-length recombinant CFH as proof of concept, and supernatants from 293T cells transfected with CpG-free miniCFH. As a control, we included conditions of mock incubation of CFH and transfected cell supernatant with no antibodies.
(ELISA stands for enzyme-linked immunosorbent assay.)

T1 sequence (P01024 23-667 limits assumed, chain 1 of 2): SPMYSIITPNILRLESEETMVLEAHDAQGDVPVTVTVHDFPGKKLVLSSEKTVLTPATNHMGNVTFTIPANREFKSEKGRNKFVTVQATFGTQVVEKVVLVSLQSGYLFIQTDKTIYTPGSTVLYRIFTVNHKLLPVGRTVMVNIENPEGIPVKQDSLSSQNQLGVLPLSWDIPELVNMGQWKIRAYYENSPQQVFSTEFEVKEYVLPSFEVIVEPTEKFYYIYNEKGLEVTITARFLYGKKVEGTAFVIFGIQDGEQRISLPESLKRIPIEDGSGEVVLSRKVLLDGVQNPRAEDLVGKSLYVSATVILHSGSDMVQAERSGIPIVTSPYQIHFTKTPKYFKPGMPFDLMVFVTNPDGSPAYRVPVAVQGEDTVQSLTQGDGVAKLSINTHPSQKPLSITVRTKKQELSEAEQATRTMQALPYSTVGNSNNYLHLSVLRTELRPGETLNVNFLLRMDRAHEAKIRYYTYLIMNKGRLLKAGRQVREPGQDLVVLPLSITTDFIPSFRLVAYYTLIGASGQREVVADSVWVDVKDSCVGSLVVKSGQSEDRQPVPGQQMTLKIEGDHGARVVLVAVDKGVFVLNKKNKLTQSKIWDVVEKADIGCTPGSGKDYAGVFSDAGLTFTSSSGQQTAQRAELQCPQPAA
T1 sequence (P01024 749-1663 limits assumed, chain 2 of 2): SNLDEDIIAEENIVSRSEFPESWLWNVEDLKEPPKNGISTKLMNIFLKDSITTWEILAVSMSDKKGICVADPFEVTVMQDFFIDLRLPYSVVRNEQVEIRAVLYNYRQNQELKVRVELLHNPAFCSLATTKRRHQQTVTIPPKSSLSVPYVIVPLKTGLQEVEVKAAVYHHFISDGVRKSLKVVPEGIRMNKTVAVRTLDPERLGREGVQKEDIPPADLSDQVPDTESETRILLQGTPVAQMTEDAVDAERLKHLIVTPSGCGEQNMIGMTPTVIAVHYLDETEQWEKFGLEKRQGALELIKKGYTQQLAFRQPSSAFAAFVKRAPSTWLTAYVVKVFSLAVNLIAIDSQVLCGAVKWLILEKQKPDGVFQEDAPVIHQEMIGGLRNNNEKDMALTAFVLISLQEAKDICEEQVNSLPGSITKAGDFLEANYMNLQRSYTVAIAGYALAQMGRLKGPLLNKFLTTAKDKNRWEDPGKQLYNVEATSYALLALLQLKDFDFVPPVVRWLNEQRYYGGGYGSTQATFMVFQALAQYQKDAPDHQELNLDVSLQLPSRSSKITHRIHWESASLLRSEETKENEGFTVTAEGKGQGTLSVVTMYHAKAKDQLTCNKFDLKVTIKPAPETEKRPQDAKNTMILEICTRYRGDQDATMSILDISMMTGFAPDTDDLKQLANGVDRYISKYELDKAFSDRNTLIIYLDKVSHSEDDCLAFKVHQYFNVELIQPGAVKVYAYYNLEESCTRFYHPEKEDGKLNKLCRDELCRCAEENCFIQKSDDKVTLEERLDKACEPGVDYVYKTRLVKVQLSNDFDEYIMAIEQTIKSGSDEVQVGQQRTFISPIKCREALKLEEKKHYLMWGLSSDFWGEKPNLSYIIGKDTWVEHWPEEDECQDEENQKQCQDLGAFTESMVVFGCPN

B1: miniCFH (shortened form of human complement factor H containing SCRs 1-4, 6-8 and 17-20) (other)
chain: EDCNELPPRRNTEILTGSWSDQTYPEGTQAIYKCRPGYRSLGNIIMVCRKGEWVALNPLRKCQKRPCGHPGDTPFGTFTLTGGNVFEYGVKAVYTCNEGYQLLGEINYRECDTDGWTNDIPICEVVKCLPVTAPENGKIVSSAMEPDREYHFGQAVRFVCNSGYKIEGDEEMHCSDDGFWSKEKPKCVEISCKSPDVINGSPISQKIIYKENERFQYKCNMGYEYSERGDAVCTESGWRPLPSCEEKSTLKPCDYPDIKHGGLYHENMRRPYFPVAVGKYYSYYCDEHFETPSGSYWDHIHCTQDGWSPAVPCLRKCYFPYLENGYNQNYGRKFVQGKSIDVACHPGYALPKAQTTVTCMENGWSPTPRCIRVKTCSKSSIDIENGFISESQYTYALKEKAKYQCKLGYVTADGETSGSITCGKDGWSAQPTCIKSIKTDCLSLPSFENAIPMGEKKDVYKAGEQVTYTCATYYKMDGASNVTCINSRWTGRPTCRDTSCVNPPTVQNAYIVSRQMSKYPSGERVRYQCRSPYEMFGDEEVMCLNGNWTEPPQCKDSTGKCGPPPPIDNGDITSFPLSVYAPASSVEYQCQNLYQLEGNKRITCRNGQWSEPPKCLHPCVISREIMENYNIALRWTAKQKLYSRTGESVEFVCKRGYRLSSRSHTLRTTCWDGKLEYPTCAKR
notes: Tested as unpurified serum-free supernatant of HEK293T cells transfected with the rAAV plasmid cassette; also called CpG-free miniCFH; short CFH
As for B1, the binding result is listed as “binds”.
